# From US20250075191A1, “MODIFIED BIOLUMINESCENT ENZYMES” (Light Bio, Inc., priority 2023, published 2025)
# Columns and labels:
# [1] = tested on: yeast cells (P. pastoris); test: Stability of luciferase within yeast cells after 10 min incubation at different temperatures; type: cell-based; conditions: then luciferin; for reduction of luminescence after incubation at 40° C.: 10 min at 40° C.; for reduction of luminescence after incubation at 45° C.: 10 min at 45° C.
# Experimental: To evaluate stability of nnLuz_WT and nnLuz_v4 within yeast cells, strains expressing nnLuz WT or nnLux_v4 were grown on plates for 24 hours, then resuspended in PBS to final OD (600 nm)=5 and 50 μl was placed in wells of a 96-well PCR plate. Different portions of the plate were incubated at different temperatures for 10 minutes using a gradient thermal cycler. The plate were then placed on ice for 5 minutes and 10 μl of 500 μM luciferin (2% DMSO, 10 mM thioglycolic acid, 0.1% DDM in DPBS) were added to each well. Then 25 μl of suspension from each well was transferred to a black 96-well plate containing 0.2 M sodium phosphate buffer with 0.5 M Na2SO4,pH=8.
# [2] = Michaelis-Menten kinetics of HiBiT-fused luciferase in yeast lysates; type: biochemical; conditions: fitted Michaelis-Menten model
# Description: To quantify the activity of nnLuz_v4 relative to the parental nnLuz_WT, genetic fusions were made with the HiBiT tag. The HiBiT tag is a small bioluminescent marker that may be appended onto other proteins, thereby providing a mechanism for measuring relative protein concentration. By fusing the tag onto the C-terminus of luciferase, variability in protein concentration can be normalized across independent samples.
# Yeast strains expressing fusions of nnLuz_WT and nnLuz_v4 with HiBiT were inoculated into YPD medium and cultured at 30° C. with 220 rpm for 18-20 hours. Then 4 ml of each yeast suspension were centrifuged at 5000 g (4° C.) and resuspended in 400 μL of 100 mM MOPS (pH=7.5), 4 mM EDTA, 2 mM TCEP, 1 mM PMSF. […]
# Samples were diluted 25 fold in the same buffer as used for lysis and concentrated to a volume of 200 μL using Amicon Ultra-15 Centrifugal Filter Unit 10 kDa (Millipore). […] Luminescence was measured in Tecan Spark plate-reader with exposure of 500 ms for 15 min. Activity of each variant was normalized to the expression level of HiBiT, as quantified with HiBiT lytic reagent (Promega N3030).
# To quantify luminescence, intensity values of the wells were normalized by the integral values for HiBiT luminescence kinetics. Then, the integral signal for each sample was calculated. […]
# Pichia pastoris GS115 = test: Luminescence imaging of transformed yeast after addition of luciferin, hispidin or caffeic acid; type: cell-based
# Experimental: Integration of plasmids into the genome of Pichia pastoris GS115 was targeted at the GAP promoter locus. Linearized plasmids were used for the transformation of electrically competent yeast cells. Colonies were selected using […] of G418 or 200 mg/ml of hygromycin or 50 mg/ml of zeocin. PCR-based screening of yeast colonies was done by heating up colonies in 10 μl of 20 mM NaOH at 90° C. for 7 min and then using 1 μl of the resulting solution for direct PCR. For luminescence imaging, yeast culture grown on plate was resuspended in 50 μL of 1M sorbitol. 5 μL of the suspension was then added in 3 replicates to YPD agar plates lacking antibiotics. […] Imaging was performed in Fusion Pulse (Vilber, France), with exposure of 0.1 or 5 sec every 3 or 5 min for 1.0-1.5 hours—for caffeic acid treatment, with exposure of 20 sec for 20 mins—for hispidin treatment, with exposure of 0.5 sec every 10 sec for 10 mins in case of luciferin treatment.
# Processing of images was performed using FiJi ImageJ distribution (version 1.53t) 20 and custom Python scripts (Python version 3.8). For luminescence quantification mean values in the region of interest after background subtraction were used. Background subtraction was performed using the following formula: signal=signalraw−(backgroundmean−3*backgroundSD).
# [3] = Enzyme thermostability in cleared E. coli lysates incubated at 22° C.; type: biochemical; conditions: then 100 μM luciferin
# Experimental: To assess the effect on enzyme thermostability by the amino acid substitutions, lysates of transformed E. coli were prepared by sonication and cleared by centrifugation. The cleared lysates were diluted 1:100 into Tris-buffered saline with 0.01% BSA and 0.1% n-dodecyl β-D-maltoside. 100 μl of each diluted lysate were added to a 96-well PCR plate. Samples were incubated at 22° C. and at various time points aliquots were placed on ice. When all of the samples were processed, 50 μl of each was combined with 50 μl of 100 μM luciferin in Tris-buffered saline with 0.01% BSA and 0.1% n-dodecyl β-D-maltoside. Samples were immediately placed in a GloMax®-Multi+luminometer (Promega) to measure bioluminescence.
# [4] = Luciferase luminescence in E. coli lysates after luciferin addition; type: biochemical; conditions: 100 μM luciferin, maximal brightness
# Description: A library of amino acid substitutions was created applying mutagenesis to a gene encoding the luciferase derived from Neonothopanus nambi (SEQ ID NO: 8). pF4Ag shuttle vector (Promega) was used for gene expression in E. coli (T7 promoter-driven expression) and mammalian cells (CMV promoter-driven expression). The pF4Ag vector backbone introduces a C-terminal 3×-FLAG-HiBiT tag. Site-directed mutagenesis was used to substitute consensus amino acids at selected position in the luciferase sequence. Gene expression was performed in the E. coli strain KRX (Promega), which enables rhamnose-inducible expression of T7 RNA polymerase.
# Colonies (in triplicate) were used to inoculate LB broth containing ampicillin ([…]) and cultures grown overnight in 96-well microtiter plates (20 hours, 37° C.). Cultures were diluted into fresh LB containing 0.1% rhamnose and ampicillin and grown for 3 hours at 37° C. 50 μl of the induced culture was lysed for 5 minutes at ambient temperature with a reagent consisting of 25 mM HEPES pH 7.5 and 0.3×PLB (E1941 Promega). 50 μl of lysate was combined with 50 μl luciferin (100 μM) in the lysis buffer and samples were measured for total luminescence using a GloMax®-Multi+luminometer. (Promega).
# HEK293 cells = test: Luciferase luminescence by transient expression in HEK293 cells after luciferin addition; type: cell-based; conditions: living HEK293 cells, luciferin 740 μM final concentration
# Experimental: Production of luminescence by nnLuz_v3 was measure in E. coli lysates by the above method, and in mammalian cells (HEK293 cells). The HEK293 cells were transfected using the FugeneHD transfection reagent (Promega) according to the manufacturer's instructions. Cells were grown overnight under CO2 at 37° C. in 96-well white assay plates. For luminescence measurements, media was removed and replaced with 100 μl of CO2 independent media (Life Technologies 18045) containing 10% FBS. 33 μl of luciferin was added to cells (740 μM final concentration). The luminescence was measured using a GloMax-Multi+luminometer (Promega).
# [5] = tested on: HEK293NT or HEK293 cell lines; test: Pathway luminescence in transfected mammalian cells in the presence of caffeic acid; type: cell-based; conditions: gene set expressing nnLuz_WT, mcitHispS, nnCPH, and NpgA
# Experimental: In different sets of experiments, HEK293NT or HEK293 cell lines were seeded in 96-well plates (ibidi, ibiTreat μ-Plate 96 Well Black). Cells were transfected with a mixture of the five plasmids that encoded variants of nnLuz, and nnH3H, along with nnHispS or mcitHispS, nnCPH, and NpgA by PolyFect Transfection Reagent (QIAGEN) according to the manufacturer's protocol, using 2 μl PolyFect per well and a mixture of plasmids containing 44 ng of plasmid expressing nnLuz, and equivalent amounts of the other four plasmids according to their size. Transfected cells were grown in DMEM (PanEco) supplemented with 10% fetal bovine serum (HyClone), 4 mM L-glutamine, 10 U/ml penicillin and 10 µg/ml streptomycin, at 37° C. and 5% CO2. Twenty-four hours after transfection, the medium was changed to 25 μM or 100 μM caffeic acid solution (0.1% DMSO in DPBS) and luminescence was imaged for 23 minutes by IVIS Spectrum CT (PerkinElmer) at 37° C. every 9 seconds with open filter, binning of 16 and exposure of 5 seconds. The number of independent replicates is included in the figure's legends.
molecule,measurement,setting,value
"nnLuz_v4 (protein, listed as Neonothopanus nambi) MRSTISLSSLLERLSKLSSRSIAITCGVVLASAIAFPIIRRDYQTFLEVGPSYAPQNFRGYITVCVLSLFRQEQKGLAIYDRLPEKRRWLADLPFREGPRPSITSHIIQRQRTQLVDQEFATRELIDKVIPRVQARHTDKTFLSTSKFEFHAKAIFLLPSIPINDPLNIPSHDTVRRTKREIAHMHDYHDCSLHLALAPQDGKEVLKKGWGQRHPLAGPGVPGPPTEWTFLYAPRNEEEARVVEMIVEASIGYMTNDPAGKIVENAKGS",reduction of luminescence after incubation at 40° C.,[1],no loss of activity
same,reduction of luminescence after incubation at 45° C.,[1],3 fold
same,Km relative to nnLuz_WT,[2],similar
same,higher Vmax relative to nnLuz_WT,[2]; normalized to HiBiT,4.2 fold
same,bioluminescence relative to cells expressing nnLuz_WT,Pichia pastoris GS115; addition of 50 μM luciferin,greater bioluminescence
same,greater luminescence relative to nnLuz_WT,"Pichia pastoris GS115; combined with nnH3H_v2, mcitHispS and NpgA, caffeic acid",1.9 fold
"nnLuz_v3: N. nambi luciferase with substitutions T99P, T192S, A199P combined (SEQ ID NO: 2) (protein, listed as Neonothopanus nambi) MRINISLSSLFERLSKLSSRSIAITCGVVLASAIAFPIIRRDYQTFLEVGPSYAPQNFRGYIIVCVLSLFRQEQKGLAIYDRLPEKRRWLADLPFREGPRPSITSHIIQRQRTQLVDQEFATRELIDKVIPRVQARHTDKTFLSTSKFEFHAKAIFLLPSIPINDPLNIPSHDTVRRTKREIAHMHDYHDCSLHLALAPQDGKEVLKKGWGQRHPLAGPGVPGPPTEWTFLYAPRNEEEARVVEMIVEASIGYMTNDPAGKIVENAK",enzyme stability relative to unmodified parental luciferase,[3],greater enzyme stability
same,production of bioluminescence relative to parental nnLuz,[4],substantially greater
same,production of bioluminescence relative to parental nnLuz_WT,HEK293 cells,substantially greater
"nnLuz_WT: parental luciferase derived from Neonothopanus nambi (SEQ ID NO: 1) (protein, listed as Neonothopanus nambi) MRINISLSSLFERLSKLSSRSIAITCGVVLASAIAFPIIRRDYQTFLEVGPSYAPQNFRGYIIVCVLSLFRQEQKGLAIYDRLPEKRRWLADLPFREGTRPSITSHIIQRQRTQLVDQEFATRELIDKVIPRVQARHTDKTFLSTSKFEFHAKAIFLLPSIPINDPLNIPSHDTVRRTKREIAHMHDYHDCTLHLALAAQDGKEVLKKGWGQRHPLAGPGVPGPPTEWTFLYAPRNEEEARVVEMIVEASIGYMTNDPAGKIVENAK",reduction of luminescence after incubation at 40° C.,[1],> 3 fold
same,reduction of luminescence after incubation at 45° C.,[1],100 fold
"nnH3H_v2: N. nambi hispidin hydroxylase with D37E, V181I, S323M, and M385K (SEQ ID NO: 6) (protein, listed as Neonothopanus nambi) MASFENSLSVLIVGAGLGGLAAAIALRRQGHVVKIYESSSFKAELGAGLAVPPNTLRSLQQLGCNTENLNGVDNLCFTAMGYDGSVGMMNNMTDYREAYGTSWIMVHRVDLHNELMRIALDPGGLGPPATLHLNHRVTFCDVDACTVTFTNGTTQSADLIVGADGIRSTIRRFVLEEDVTVPASGIVGFRWLVQADALDPYPELDWIVKKPPLGARLISTPQNPQSGVGLADRRTIIIYACRGGTMVNVLAVHDDERDQNTADWSVPASKDDLFRVFHDYHPRFRRLLELAQDINLWQMRVVPVLKKWVNKRVCLLGDAAHAMLPTLGQGFGMGLEDAVALGTLLPKGTTASQIETRLAVYEQLRKDRAEFVAAESYEEQYVPEKRGLYLRSKELRDRVMGYDIKVESEKVLETLLRSSNSA",bioluminescence relative to cells expressing nnH3H_WT and nnLuz_WT,"Pichia pastoris GS115; co-expressed with nnLuz_WT, addition of 100 μM hispidin",greater bioluminescence
same,greater luminescence relative to nnH3H_WT,"Pichia pastoris GS115; combined with nnLuz_WT, mcitHispS and NpgA, caffeic acid",3.9 fold
same,greater luminescence compared with nnH3H_WT,[5],2.5 fold
